Like-named read-outs stand apart in the source and are kept apart here.
T1: M.HhaI methyltransferase (UniProt P05102 1-327)
T1 sequence: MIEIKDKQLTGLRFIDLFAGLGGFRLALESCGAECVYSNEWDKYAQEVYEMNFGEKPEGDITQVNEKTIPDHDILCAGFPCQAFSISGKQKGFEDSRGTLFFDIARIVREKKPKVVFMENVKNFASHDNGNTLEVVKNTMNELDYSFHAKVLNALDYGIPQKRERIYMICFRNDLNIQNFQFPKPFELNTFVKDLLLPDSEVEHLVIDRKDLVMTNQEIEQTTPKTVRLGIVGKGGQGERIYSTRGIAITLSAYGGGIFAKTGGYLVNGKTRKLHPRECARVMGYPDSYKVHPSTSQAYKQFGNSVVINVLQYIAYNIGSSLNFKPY


Tests used:
M.HhaI methyltransferase [1] = molecular target: T1, M.HhaI methyltransferase; experiment: electrochemical E-DNA sensor
M.HhaI methyltransferase [2] = molecular target: T1, M.HhaI methyltransferase; experiment: electrochemical E-DNA sensor; remark: listed apart in the source

Binder | binding result (M.HhaI methyltransferase [1]) | binding result (M.HhaI methyltransferase [2])
AAGACGAGCGCATGTTTATGCGCTC (structured_DNA, 5' HS-(CH2)6 thiol; internal T16 C5-linked methylene blue) [M.HhaI probe] | binds | –
CGGGCTATATAAGGGGCGTTTTCTTATATAG (structured_DNA, 5' HS-(CH2)6 thiol; internal T10 C5-linked methylene blue) [TATA probe] | – | no binding
